Changes are numbered by the printed parent chain. Entries after “also recorded” stand apart in the source; their conditions may differ. Blank lines part the entries; values can stand above or below the molecule they belong to.
Assays:
[1] = molecular target: T1, TGFβ-1 (Homo sapiens, UniProt P01137); test: Microtiter binding assay: [125I]-TGFβ-1 binding to decorin-coated wells and competition; design: contains a major band at 25 kd; This band represents the native TGFβ-1 dimer; purchased Calbiochem, La Jolla, Calif; settings: for inhibition of [125I]-TGFβ-1 binding to decorin-coated wells by core proteins: core proteins / chondroitinase ABC-treated, 4° C. overnight (FIG. 3B); for inhibition of [125I]-TGFβ-1 binding to decorin-coated wells: intact proteoglycans, 37° C. 4 hours (FIG. 3A); for binding of [125I]-TGFβ-1 to microtiter wells coated with the protein: protein coated on wells
Description: The binding of TGFβ-1 to decorin was also examined in a microtiter binding assay. To perform the assay, the wells of a 96-well microtiter plate were coated overnight with 2μg/ml of recombinant decorin in 0.1M sodium carbonate buffer, pH 9.5. The wells were washed with PBS containing 0.05% Tween (PBS/Tween) and samples containing 5×10^4 cpm of [^125 I]-TGFβ-1 and various concentrations of competitors in PBS/Tween were added to each well. The plates were then incubated at 37° C. for 4 hours (at 4° C. overnight in experiments with chondroitinase ABC-digested proteoglycans), washed with PBS/Tween and the bound radioactivity was solubilized with 1% SDS in 0.2M NaOH. Total binding without competitors was about 4% under the conditions used. Nonspecific binding, determined by adding 100-fold molar excess of unlabeled TGFβ-1 over the labeled TGFβ-1 to the incubation mixture, was about 13% of total binding. This assay was also used to study the ability of other decorin preparations and related proteins to compete with the interaction.
Decorin isolated from bovine skin and biglycan isolated from bovine articular cartilage (PGI and PGII, obtained from Dr. Lawrence Rosenberg, Monteflore Medical Center, N.Y.; and described in Rosenberg et al., J. Biol. Chem. 250:6304-6313, (1985), incorporated by reference herein), chicken cartilage proteoglycan (provided by Dr. Paul Goetinck, La Jolla Cancer Research Foundation, La Jolla, Calif., and described in Goetinck, P. F., in THE GLYCOCONJUGATES, Vol. III, Horwitz, M. I., Editor, pp. 197-217, Academic Press, NY). For the preparation of core proteins, proteoglycans were digested with chondroitinase ABC (Seikagaku, Tokyo, Japan) by incubating 500 μg of proteoglycan with 0.8 units of chondroitinase ABC in 250 μl of 0.1M Tris/Cl, pH 8.0, 30 mM sodium acetate, 2 mM PMSF, 10 mM N-ethylmalelmide, 10 mM EDTA, and 0.36 mM pepstatin for 1 hour at 37° C. Recombinant decorin and decorin isolated from bovine skin (PGII) inhibited the binding of [^125 I]-TGFβ-1, as expected (FIG. 3A). […] This notion was further supported by competition experiments with the mutated decorin core protein (not shown) and chondroitinase ABC-digested decorin and biglycan (FIG.3B). Each of these proteins was inhibitory, whereas cartilage proteoglycan core protein was not.
Target sequence in this assay (P01137 279-390 limits assumed, species assumed): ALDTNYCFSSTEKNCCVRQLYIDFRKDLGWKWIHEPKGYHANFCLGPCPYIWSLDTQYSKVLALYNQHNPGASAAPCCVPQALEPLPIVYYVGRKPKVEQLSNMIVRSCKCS

[2] = molecular target: T1, TGFβ-1; test: affinity chromatography of 125I-TGFβ1 on control gelatin-Sepharose
[3] = molecular target: T1, TGFβ-1
[4] = molecular target: T2, TGF-β (Homo sapiens, UniProt P01137); test: Binding of 125I-TGF-β to L-M(tk-) cells; settings: various concentrations of peptide (FIG. 12)
Description: About 2.5×10^4 HepG2 cells or L-M(tk-) cells were incubated with 250 pM[^125 I]TGF-β in the presence of recombinant human decorin (DC-12), PT-71 (MBP), decorin fragments (PT-72, -73, -84, -85, -86 and -87) or anti-TGF-β antibodies for 2 hours at room temperature. Cells were washed with washing buffer (128 mM NaCl, 5 mM KCl, 5 mM […], 1.2 mM CaCl2, 50 mM HEPES, pH 7.5) four times before determination of bound CPM.
The activity of the peptides was evaluated using the L-M(tk-) TGFβ1 binding inhibition assay described in Example VII, except various concentrations of peptide were incubated with the cells and TGFβ1 instead of decorin and recombinant decorin fragments. The negative control was a synthetic peptide corresponding to the first 15 amino acids of decorin, which has the sequence […](SEQ ID NO. 21).

[5] = molecular target: T2, TGF-β; test: Binding of 125I-TGF-β to immobilized decorin with competitors; settings: 400 pM 125I-TGF-β pre-incubated with competitor; overnight 0° C.
Description: Immulon wells were coated with 0.5 μg/ml recombinant decorin at 50 μl/well. The wells were placed in a 37° C. incubator overnight and thereafter washed 3 times with 200 μl PBS (0.15M NaCl ) per well to remove unbound decorin. TGF-β labeled with ^125 I (400 pM, New England Nuclear, Bolton-Hunter Labeled) was pre-incubated with or without competitors in 200 μl PBS/0.05% Tween-20 for 1 hour and 45 minutes at room temperature. Competitors included recombinant human decorin preparations (DC-13 and DC-18v), decorin fragments, and MBP as a negative control.
Fifty μl/well of the pre-incubated ^125 I-TGF-β mixture or control were added and incubated overnight at 0° C. Following the incubation, 50 μl of the free TGF-β supernatants were transferred to labeled tubes. The plate was washed 3 times with 0.05% Tween-20 in PBS (200 μl/well). The wells were then transferred into tubes for counting in a gamma counter.
Further binding studies were conducted with soluble N-terminal decorin peptide fragments synthesized and tested for their ability to inhibit TGF-β1 binding to immobilized decorin as described above.

[6] = molecular target: TGFβ-1 (Homo sapiens (Human), UniProt P01137, 125I label in most assays (chloramine T method in Example II; Bolton-Hunter labeled in Example VI); unlabeled in the experiment of Table I and in the growth assays); test: soluble peptide competitor of 125I-TGF-β binding to immobilized decorin
Description: The wells were placed in a 37° C. incubator overnight and thereafter washed 3 times with 200 µl PBS (0.15M NaCl) per well to remove unbound decorin.
Following the incubation, 50 µl of the free TGF-β supernatants were transferred to labeled tubes. The plate was washed 3 times with 0.05% Tween-20 in PBS (200 µl/well). The wells were then transferred into tubes for counting in a gamma counter.

T2 sequence (P01137 279-390 limits assumed): as the sequence (P01137 279-390 limits assumed, species assumed) above

Molecule: PFRSQSHLRVVQ [P25 -Q36, 18]
inhibition of binding of TGFβ1 to L-M(tk-) cells by synthetic peptides [4]: inhibited

Molecule: PFRCQCHLRVVQ [nP25 -Q36, 20]
inhibition of binding of TGFβ1 to L-M(tk-) cells by synthetic peptides [4]: demonstrated inhibitory activity, albeit to a lesser extent

B1: DC-13: preparation of recombinant human decorin (protein)
chain: DEASGIGPEVPDDRDFEPSLGPVCPFRCQCHLRVVQCSDLGLDKVPKDLPPDTTLLDLQNNKITEIKDGDFKNLKNLHALILVNNKISKVSPGAFTPLVKLERLYLSKNQLKELPEKMPKTLQELRAHENEITKVRKVTFNGLNQMIVIELGTNPLKSSGIENGAFQGMKKLSYIRIADTNITSIPQGLPPSLTELHLDGNKISRVDAASLKGLNNLAKLGLSFNSISAVDNGSLANTPHLRELHLDNNKLTRVPGGLAEHKYIQVVYLHNNNISVVGSSDFCPPGHNTKKASYSGVSLFSNPVQYWEIQPSTFRCVYVRSAIQLGNYK
modifications: single glycosaminoglycan chain of a chondroitin sulfate/dermatan sulfate type on serine-4
notes: preparation of recombinant human decorin
inhibition of 125I-TGF-β binding to immobilized decorin [5]: inhibited

B3: chondroitinase ABC-digested decorin: decorin core protein prepared by chondroitinase ABC digestion (protein)
chain: B1 chain with S4T
inhibition of [125I]-TGFβ-1 binding to decorin-coated wells by core proteins [1]: inhibitory; also recorded: somewhat more active than the intact proteoglycans

B4: DC-18V: preparation of recombinant human decorin (protein)
chain: B1 chain
modifications: single glycosaminoglycan chain of a chondroitin sulfate/dermatan sulfate type on serine-4
notes: as for B1
inhibition of 125I-TGF-β binding to immobilized decorin [5]: inhibited

B5: Biglycan isolated from bovine articular cartilage: biglycan isolated from bovine articular cartilage (protein)
chain: DEEASGAETTSGIPDLDSLPPTYSAMCPFGCHCHLRVVQCSDLGLKAVPKEISPDTTLLDLQNNDISELRKDDFKGLQHLYALVLVNNKISKIHEKAFSPLRKLQKLYISKNHLVEIPPNLPSSLVELRIHDNRIRKVPKGVFSGLRNMNCIEMGGNPLENSGFEPGAFDGLKLNYLRISEAKLTGIPKDLPETLNELHLDHNKIQAIELEDLLRYSKLYRLGLGHNQIRMIENGSLSFLPTLRELHLDNNKLSRVPAGLPDLKLLQVVYLHTNNITKVGVNDFCPVGFGVKRAYYNGISLFNNPVPYWEVQPATFRCVTDRLAIQFGNYKK
modifications: intact proteoglycan (carries glycosaminoglycan)
inhibition of [125I]-TGFβ-1 binding to decorin-coated wells [1]: as effective an inhibitor as decorin
binding of [125I]-TGFβ-1 to microtiter wells coated with the protein [1]: bound

Continued, in another order:

inhibition of [125I]-TGFβ-1 binding to decorin-coated wells by core proteins [1]: did not shown any inhibition
Molecule: Bovine serum albumin treated with chondroitinase ABC: BSA treated with chondroitinase ABC, control [reference compound]

percent of the radioactivity in the urea-eluted fraction [2]: 2%
Molecule: gelatin

3H-thymidine incorporation in CHO cells stimulated with 5 ng/ml TGFβ-1, half maximal neutralization [3]: 5 µg/mL
Molecule: recombinant human decorin (from UniProt P07585)

inhibition of [125I]-TGFβ-1 binding to decorin-coated wells [1]: did not shown any inhibition
Molecule: Bovine serum albumin: bovine serum albumin control [reference compound]

inhibition of [125I]-TGFβ-1 binding to decorin-coated wells by core proteins [1]: inhibitory
B2: mutated decorin core protein: decorin core protein with serine-4 mutated, lacking glycosaminoglycan (protein)
chain: B1 chain with S4T

binding of [125I]-TGFβ-1 to microtiter wells coated with the protein [1]: bound
B6: chondroitinase ABC-digested biglycan: biglycan core protein prepared by chondroitinase ABC digestion (protein)
chain: B5 chain
modifications: glycosaminoglycan removed with chondroitinase ABC
notes: biglycan core protein prepared by chondroitinase ABC digestion
inhibition of [125I]-TGFβ-1 binding to decorin-coated wells by core proteins [1]: inhibitory; also recorded: somewhat more active than the intact proteoglycans

binding result [6]: binds
Molecule: HLRVVQCSDLGL [peptide 16G]

inhibition of [125I]-TGFβ-1 binding to decorin-coated wells [1]: inhibited
B7: decorin isolated from bovine skin (PGII): decorin isolated from bovine skin (protein, UniProt P21793 31-360, looked up)
Decorin: DEASGIGPEEHFPEVPEIEPMGPVCPFRCQCHLRVVQCSDLGLEKVPKDLPPDTALLDLQNNKITEIKDGDFKNLKNLHTLILINNKISKISPGAFAPLVKLERLYLSKNQLKELPEKMPKTLQELRVHENEITKVRKSVFNGLNQMIVVELGTNPLKSSGIENGAFQGMKKLSYIRIADTNITTIPQGLPPSLTELHLDGNKITKVDAASLKGLNNLAKLGLSFNSISAVDNGSLANTPHLRELHLNNNKLVKVPGGLADHKYIQVVYLHNNNISAIGSNDFCPPGYNTKKASYSGVSLFSNPVQYWEIQPSTFRCVYVRAAVQLGNYK

— patent publication US5705609A, “Decorin fragments inhibiting cell regulatory factors” (La Jolla Cancer Research Foundation, priority 1995, dated 1998)
